Results from patent publication US20210388110A1 (published 2021).
Numbering of substitutions follows the chain as printed. Each block holds one binder with its values, some of them ahead of it.

Target: T1, soluble human CD3ε chain (human, UniProt P07766 23-126, limits assumed)
T1 construct: the text says soluble human CD3ε chain; also called human CD3 epsilon chain
Test: SPR (Biacore)

T1 sequence (P07766 23-126 limits assumed): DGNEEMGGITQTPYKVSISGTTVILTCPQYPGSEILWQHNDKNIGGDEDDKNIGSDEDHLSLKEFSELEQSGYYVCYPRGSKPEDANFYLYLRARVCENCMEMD

B2: CE115HA179-G1dh//-Hi-Kn010G3/L0000-k0 (antibody, human IgG1, kappa)
heavy: not shown
chain: EPKSSDKTHTCPPCPAPELLGGPSVFLFPPKPKDTLMISRTPEVTCVVVDVSHEDPEVKFNWYVDGVEVHNAKTKPREEQYNSTYRVVSVLTVLHQDWLNGKEYKCKVSNKALPAPIEKTISKAKGQPREPQVCTLPPSRDELTKNQVSLWCLVKGFYPSDIAVEWESNGQPENNYKTTPPVLDSDGSFFLYSKLTVDKSRWQQGNVFSCSVMHEALHNRYTQKSLSLSP
light: DIVMTQSPLSLPVTPGEPASISCRSSQSLVHSNRNTYLHWYQQKPGQAPRLLIYKVSNRFSGVPDRFSGSGSGTDFTLKISRVEAEDVGVYYCGQGTQVPYTFGQGTKLEIKRTVAAPSVFIFPPSDEQLKSGTASVVCLLNNFYPREAKVQWKVDNALQSGNSQESVTEQDSKDSTYSLSSTLTLSKADYEKHKVYACEVTHQGLSSPVTKSFNRGEC
notes: single-arm
Kd: 8.35 nM

B6: hCE115HA-E22Hh//-Hi-Kn010G3/L0000-k0 (antibody, human IgG1, kappa, L234A L235A, N297A)
heavy: QVQLVESGGGVVQPGRSLRLSCAASGFTFSNAWMHWVRQAPGKGLEWVAQIKAKSNNYATYYAESVKGRFTISRDDSKNSLYLQMNSLKTEDTAVYYCRYVHYGAYYGVDAWGQGTTVTVSSASTKGPSVFPLAPSSKSTSGGTAALGCLVKDYFPEPVTVSWNSGALTSGVHTFPAVLQSSGLYSLSSVVTVPSSSLGTQTYICNVNHKPSNTKVDKKVEPKSCDKTHTCPPCPAPEAAGGPSVFLFPPKPKDTLMISRTPEVTCVVVDVSHEDPEVKFNWYVDGVEVHNAKTKPREEQYASTYRVVSVLTVLHQDWLNGKEYKCKVSNKALPAPIEKTISKAKGQPREPQVYTLPPSRCELTKNQVSLSCAVKGFYPSDIAVEWESNGQPENNYKTTPPVLDSDGSFFLVSKLTVDKSRWQQGNVFSCSVMHEALHNHYTQKSLSLSPDYKDDDDK
chain: B2 chain
light: B2 light
notes: single-arm
Kd: 143 nM

B7: TR01H084-E22Hh/none-Hi-Kn010G3/L0272-k0 (antibody, human IgG1, kappa, L234A L235A, N297A)
heavy: B6 heavy with R16G, A53D, N56Q, D75A, L81I, G104A, Y106G, A111I
chain: B2 chain
light: B2 light with S28P, N35Q
notes: single-arm
Kd: 31 nM

B8: TR01H084-E22Hh/none-Hi-Kn010G3/L0201-k0 (antibody, human IgG1, kappa, L234A L235A, N297A)
heavy: B6 heavy with R16G, A53D, N56Q, D75A, L81I, G104A, Y106G, A111I
chain: B2 chain
light: B2 light with S28P, L29P
notes: single-arm
Kd: 16.5 nM

B10: TR01H083-E22Hh/none-Hi-Kn010G3/L0000-k0 (antibody, human IgG1, kappa, L234A L235A, N297A)
heavy: B6 heavy with V11L, A53D, D75A, L81I, G104A, Y106G, A111I
chain: B2 chain
light: B2 light
notes: single-arm
Kd: 6.83 nM

B11: CE115HA178-G1dh//-Hi-Kn010G3/L0000-k0 (antibody, human IgG1, kappa)
heavy: not shown
chain: B2 chain
light: B2 light
notes: single-arm
Kd: 10.9 nM

B14: TR01H084-E22Hh/none-Hi-Kn010G3/L0000-k0 (antibody, human IgG1, kappa, L234A L235A, N297A)
heavy: B6 heavy with R16G, A53D, N56Q, D75A, L81I, G104A, Y106G, A111I
chain: B2 chain
light: B2 light
notes: single-arm
Kd: 21.3 nM

B15: TR01H084-E22Hh/none-Hi-Kn010G3/L0011-k0 (antibody, human IgG1, kappa, L234A L235A, N297A)
heavy: B6 heavy with R16G, A53D, N56Q, D75A, L81I, G104A, Y106G, A111I
chain: B2 chain
light: B2 light with S28P
notes: single-arm
Kd: 19.8 nM

B16: CE115HA180-G1dh//-Hi-Kn010G3/L0000-k0 (antibody, human IgG1, kappa)
heavy: not shown
chain: B2 chain
light: B2 light
notes: single-arm
Kd: 16.8 nM

B17: TR01H084-E22Hh/none-Hi-Kn010G3/L0262-k0 (antibody, human IgG1, kappa, L234A L235A, N297A)
heavy: B6 heavy with R16G, A53D, N56Q, D75A, L81I, G104A, Y106G, A111I
chain: B2 chain
light: B2 light with S28P, L29P, G94A
notes: single-arm
Kd: 8.51 nM

Continued, values first:

Kd: 47.6 nM
B1: TR01H082-E22Hh/none-Hi-Kn010G3/TR01L024-k0 (antibody, human IgG1, kappa, L234A L235A, N297A)
heavy: B6 heavy with V11L, A53D, N56Q, G104A, Y106G
chain: B2 chain
light: B2 light with R24Q, S25A, Q27E, L29P, Q42L, A48S, R50Q, G94T
notes: single-arm

Kd: 57.6 nM
B3: rCE115H-G1dh//-Hi-Kn010G3/L0000-k0 (antibody, human IgG1, kappa)
heavy: not shown
chain: B2 chain
light: B2 light
notes: single-arm

Kd: 62.5 nM
B4: TR01H100-E22Hh/none-Hi-Kn010G3/L0011-k0 (antibody, human IgG1, kappa, L234A L235A, N297A)
heavy: B6 heavy with V11L, A53D, N56Q, T60S, G104A, Y106G
chain: B2 chain
light: B2 light with S28P
notes: single-arm

Kd: 2.45 nM
B5: TR01H083-E22Hh/none-Hi-Kn010G3/L0262-k0 (antibody, human IgG1, kappa, L234A L235A, N297A)
heavy: B6 heavy with V11L, A53D, D75A, L81I, G104A, Y106G, A111I
chain: B2 chain
light: B2 light with S28P, L29P, G94A
notes: single-arm

Kd: 27.6 nM
B9: TR01H084-E22Hh/none-Hi-Kn010G3/L0271-k0 (antibody, human IgG1, kappa, L234A L235A, N297A)
heavy: B6 heavy with R16G, A53D, N56Q, D75A, L81I, G104A, Y106G, A111I
chain: B2 chain
light: B2 light with S28P, L29P, N35Q
notes: single-arm

Kd: 6.7 nM
B12: TR01H083-E22Hh/none-Hi-Kn010G3/L0011-k0 (antibody, human IgG1, kappa, L234A L235A, N297A)
heavy: B6 heavy with V11L, A53D, D75A, L81I, G104A, Y106G, A111I
chain: B2 chain
light: B2 light with S28P
notes: single-arm

Kd: 35.5 nM
B13: CE115HA177-G1dh//-Hi-Kn010G3/L0000-k0 (antibody, human IgG1, kappa)
heavy: not shown
chain: B2 chain
light: B2 light
notes: single-arm

Kd: 27.6 nM
B18: TR01H084-E22Hh/none-Hi-Kn010G3/L0270-k0 (antibody, human IgG1, kappa, L234A L235A, N297A)
heavy: B6 heavy with R16G, A53D, N56Q, D75A, L81I, G104A, Y106G, A111I
chain: B2 chain
light: B2 light with N35Q
notes: single-arm

Kd: 65 nM
B19: hCE115HA-G1dh//-Hi-Kn010G3/L0000-k0 (antibody, human IgG1, kappa)
heavy: not shown
chain: B2 chain
light: B2 light
notes: single-arm

Kd: 9.42 nM
B20: TR01H083-E22Hh/none-Hi-Kn010G3/L0222-k0 (antibody, human IgG1, kappa, L234A L235A, N297A)
heavy: B6 heavy with V11L, A53D, D75A, L81I, G104A, Y106G, A111I
chain: B2 chain
light: B2 light with L29P, L38I, H39Q, G94Y
notes: single-arm

Kd: 0.0586 nM
B21: TR01H083-E22Hh/none-Hi-Kn010G3/L0212-k0 (antibody, human IgG1, kappa, L234A L235A, N297A)
heavy: B6 heavy with V11L, A53D, D75A, L81I, G104A, Y106G, A111I
chain: B2 chain
light: B2 light with S25P, L29P, G94Y
notes: single-arm

Kd: 4.42 nM
B22: TR01H083-E22Hh/none-Hi-Kn010G3/L0201-k0 (antibody, human IgG1, kappa, L234A L235A, N297A)
heavy: B6 heavy with V11L, A53D, D75A, L81I, G104A, Y106G, A111I
chain: B2 chain
light: B2 light with S28P, L29P
notes: single-arm
